Source: patent publication US20240343823A1 (Ablynx, published 2024)
Like-named read-outs stand apart in the source and are kept apart here.

Columns and labels:
[1] = target: T1, human GPC3 on tumor cell lines (HepG2, Huh-7, NCI-H661, MKN-45, NCI-H23, BxPC-3, NCI-H292) (human, UniProt P51654 25-554); test: flow cytometry on HepG2 cells
T1 construct: Endogenous GPC3 of human cancer cell lines; also called GPC3 on HepG2; GPC3 on Huh-7

[2] = target: T1, human GPC3 on tumor cell lines (HepG2, …); test: flow cytometry on Huh-7 cells
[3] = target: T1, human GPC3 on tumor cell lines (HepG2, …); test: flow cytometry on HepG2 and Huh-7 cells
Description: Periplasmic extracts were screened for human and cyno GPC3 binding in flow cytometry using CHO Flp-In cells (Invitrogen cat nr. K6010) expressing either human GPC3 (accession number P51654; Q25-R358, S359-H580) or cyno GPC3 (accession number P51654; Q3-R358; S359-H559), respectively. In brief, 1×10⁵ cells were incubated in 1:5 diluted periplasmic extracts for 30 min at 4° C., and then washed 3 times. As a control, the parental CHO Flp-In cell line (Invitrogen cat nr. K6010) was included. […] Samples were washed and resuspended in FACS Buffer (D-PBS (Gibco) with 10% FBS (Sigma) and 0.05% sodium azide (Merck)) supplemented with 5 nM TOPRO3 (Molecular Probes, cat nr T3605). Cell suspensions were then analyzed on a FACS Array. Gating was set on live, intact cells using forward/side scatter and TOPRO3 channel fluorescence parameters.
Variants were evaluated for binding to HepG2, Huh-7 and CHO Flip-In cyno-GPC3 cells by flow cytometry, as described in Example 1.

[4] = target: T2, cyno GPC3 expressed on CHO Flp-In cells (cynomolgus); test: flow cytometry on CHO Flp-In cyno GPC3 cells
T2 construct: range 3-559; On cells; also called cyGPC3 CHO; CHO-cGPC3

[5] = target: T2, cyno GPC3 expressed on CHO Flp-In cells; test: flow cytometry on CHO Flp-In cyno GPC3 cells; remark: listed apart in the source
[6] = target: T1, human GPC3 on tumor cell lines (HepG2, …); test: cell-based or functional assay
[7] = target: T1, human GPC3 on tumor cell lines (HepG2, …); test: cell-based or functional assay; remark: listed apart in the source
[8] = target: T1, human GPC3 on tumor cell lines (HepG2, …); test: cell-based or functional assay; remark: listed apart in the source
[9] = target: T1, human GPC3 on tumor cell lines (HepG2, …); test: cell-based or functional assay; remark: listed apart in the source
[10] = target: T1, human GPC3 on tumor cell lines (HepG2, …); test: cell-based or functional assay; remark: listed apart in the source
[11] = target: T1, human GPC3 on tumor cell lines (HepG2, …); test: cell-based or functional assay; remark: listed apart in the source
[12] = target: T1, human GPC3 on tumor cell lines (HepG2, …); test: cell-based or functional assay; remark: listed apart in the source

B1: A022600345 (VHH)
VHH: EVQLVESGGGVVQPGGSLRLSCAASGFTFSSFAMTWVRRPPGKGLEWVATITNAGVTSYADSVKGRFTISRDNAKNTLYLQMNSLRPEDTALYICANARRTGPRAPTDIGSYRGQGTLVTVSS
EC50 [1]: 0.391 nM
EC50 [2]: 0.276 nM
fold increase in binding potency against parental A0226018C08 [3]: 2 fold
fold increase in binding potency against parental A0226018C08 [4]: 2 fold
EC50 [5]: 0.15 nM

B2: A022600351 (VHH)
VHH: EVQLVESGGGVVQPGGSLRLSCAASGFTFSSFAMTWVRRPPGKGLEWVATITNKGVTSYADSVKGRFTISRDNAKNTLYLQMNSLRPEDTALYICANARRTGPRAPTDIGSYRGQGTLVTVSS
notes: also called A0226000351
EC50 [1]: 0.431 nM
EC50 [2]: 0.477 nM
fold increase in binding potency against parental A0226018C08 [3]: 2 fold
fold increase in binding potency against parental A0226018C08 [4]: 2 fold
EC50 [5]: 0.21 nM

B3: A022600096 (other)
chain: DVQLVESGGGLVQPGGSLRLSCVASGYVHKINFYGWYRQAPGKEREKVAHISIGDQTDYADSAKGRFTISRDESKNTVYLQMNSLRPEDTALYYCRALSRIWPYDYWGQGTLVTVSSGGGGSGGGGSGGGGSGGGGSGGGGSGGGGSGGGGSEVQLVESGGGLVQPGGSLRLSCVASGFTFSSFAMTWVRRPPGKGLEWVATITNGGVTSYRDSVKGRFTISRDNAKNTLYLEMTSLNPEDTAVYICANARRTGPRAPTDIGSYRGQGTLVTVSSGGGGSGGGGSGGGGSGGGGSGGGGSGGGGSGGGGSEVQLVESGGGVVQPGGSLRLSCAASGFTFRSFGMSWVRQAPGKGPEWVSSISGSGSDTLYADSVKGRFTISRDNSKNTLYLQMNSLRPEDTALYYCTIGGSLSRSSQGTLVTVSSA
IC50 (M), Incucyte human TDC HepG2-Nuclight green assay [6]: 1.4e-09 M
Max % Killing, Incucyte human TDC HepG2-Nuclight green assay [6]: 72%

B4: A022600167 (other)
chain: DVQLVESGGGVVQPGGSLRLSCVASGYVHKINFYGWYRQAPGKEREKVAHISIGDQTDYADSAKGRFTISRDESKNTVYLQMNSLRPEDTAAYYCRALSRIWPYDYWGQGTLVTVSSGGGGSEVQLVESGGGLVQPGGSLRLSCVASGFTFSSFAMTWVRRPPGKGLEWVATITNGGVTSYRDSVKGRFTISRDNAKNTLYLEMTSLNPEDTAVYICANARRTGPRAPTDIGSYRGQGTLVTVSSGGGGSGGGGSGGGGSGGGGSGGGGSGGGGSGGGGSEVQLVESGGGVVQPGGSLRLSCAASGFTFRSFGMSWVRQAPGKGPEWVSSISGSGSDTLYADSVKGRFTISRDNSKNTLYLQMNSLRPEDTALYYCTIGGSLSRSSQGTLVTVSSA
HepG2 on Incucyte IC50 [7]: 1.92 nM
HepG2 on Incucyte Max % killing [7]: 98%
Huh7 on xCELLigence IC50 [7]: 8.61 nM
Huh7 on xCELLigence Max % killing [7]: 91%
HepG2 on Incucyte IC50 [8]: 1.92 nM
HepG2 on Incucyte Max % killing [8]: 98%
Huh7 on xCELLigence IC50 [8]: 8.61 nM
Huh7 on xCELLigence Max % killing [8]: 91%
HepG2 on Incucyte IC50 [9]: 1.92 nM
HepG2 on Incucyte Max % killing [9]: 98%
Huh7 on xCELLigence IC50 [9]: 8.61 nM
Huh7 on xCELLigence Max % killing [9]: 91%
IC50 (M), xCELLigence human TDC assay, Hep-G2 [10]: 9.2e-11 M
IC50 (M), xCELLigence human TDC assay, Huh-7 [10]: 4.7e-10 M
IC50 (M), xCELLigence human TDC assay, NCI-H661 [10]: 1.8e-10 M

B5: A022600103 (other)
chain: DVQLVESGGGVVQPGGSLRLSCVASGYVHKINFYGWYRQAPGKEREKVAHISIGDQTDYADSAKGRFTISRDESKNTVYLQMNSLRPEDTALYYCRALSRIWPYDYWGQGTLVTVSSGGGGSEVQLVESGGGLVQPGGSLRLSCVASGFTFSSFAMTWVRRPPGKGLEWVATITNGGVTSYRDSVKGRFTISRDNAKNTLYLEMTSLNPEDTAVYICANARRTGPRAPTDIGSYRGQGTLVTVSSGGGGSGGGGSGGGGSGGGGSGGGGSGGGGSGGGGSEVQLVESGGGVVQPGGSLRLSCAASGFTFRSFGMSWVRQAPGKGPEWVSSISGSGSDTLYADSVKGRFTISRDNSKNTLYLQMNSLRPEDTALYYCTIGGSLSRSSQGTLVTVSSA
IC50 (M), Incucyte human TDC HepG2-Nuclight green assay [6]: 2.04e-09 M
Max % Killing, Incucyte human TDC HepG2-Nuclight green assay [6]: 92%
IC50 (M), Incucyte human TDC HepG2-Nuclight green assay [11]: 5.43e-10 M
Max % Killing, Incucyte human TDC HepG2-Nuclight green assay [11]: 90%
HepG2 on Incucyte IC50 [7]: 1.23 nM
HepG2 on Incucyte Max % killing [7]: 96%
Huh7 on xCELLigence IC50 [7]: 7.11 nM
Huh7 on xCELLigence Max % killing [7]: 71%

B6: A022600027 (other)
chain: DVQLVESGGGLVQPGGSLRLSCVASGDVHKINFLGWYRQAPGKEREKVAHISIGDQTDYADSAKGRFTISRDESKNMVYLQMNSLKPEDTAVYFCRAFSRIYPYDYWGQGTLVTVSSGGGGSGGGGSGGGGSGGGGSGGGGSGGGGSGGGGSEVQLVESGGGLVQPGGSLRLSCVASGFTFSSFAMTWVRRPPGKGLEWVATITNGGVTSYRDSVKGRFTISRDNAKNTLYLEMTSLNPEDTAVYICANARRTGPRAPTDIGSYRGQGTLVTVSSGGGGSGGGGSGGGGSGGGGSGGGGSGGGGSGGGGSEVQLVESGGGVVQPGGSLRLSCAASGLTFSSYAMGWFRQAPGKERERVVSISRGGGYTYYADSVKGRFTISRDNSENTVYLQMNSLRPEDTALYYCAAARYWATGSEYEFDYWGQGTLVTVSS
IC50 (M), Incucyte human TDC HepG2-Nuclight green assay [12]: 8.6e-09 M

B7: A022600168 (other)
chain: DVQLVESGGGVVQPGGSLRLSCVASGYVHKINFYGWYRQAPGKEREKVAHISIGDQTDYADSAKGRFTISRDESKNTVYLQMNSLRPEDTAAYYCRALSRIWPYDYWGQGTLVTVSSGGGGSEVQLVESGGGLVQPGGSLRLSCVASGFTFSSFAMTWVRRPPGKGLEWVATITNGGVTSYRDSVKGRFTISRDNAKNTLYLEMTSLNPEDTAVYICANARRTGPRAPTDIGSYRGQGTLVTVSSGGGGSGGGGSGGGGSGGGGSGGGGSGGGGSGGGGSEVQLVESGGGLVQPGGSLRLSCVASGSIFRSVFSSSTMEWYRQPPGKKRELVARIAPGDGTNYGALYADSVKGRFTISRDDAKKTVDLQMNSLKPEDTGVYFCASGVAWGQGTLVTVSSGGGGSGGGGSGGGGSGGGGSGGGGSGGGGSGGGGSEVQLVESGGGVVQPGGSLRLSCAASGFTFRSFGMSWVRQAPGKGPEWVSSISGSGSDTLYADSVKGRFTISRDNSKNTLYLQMNSLRPEDTALYYCTIGGSLSRSSQGTLVTVSSA
HepG2 on Incucyte IC50 [7]: 0.367 nM
HepG2 on Incucyte Max % killing [7]: 103%
Huh7 on xCELLigence IC50 [7]: 0.198 nM
Huh7 on xCELLigence Max % killing [7]: 107%
HepG2 on Incucyte IC50 [8]: 0.367 nM
HepG2 on Incucyte Max % killing [8]: 103%
Huh7 on xCELLigence IC50 [8]: 0.198 nM
Huh7 on xCELLigence Max % killing [8]: 107%
HepG2 on Incucyte IC50 [9]: 0.367 nM
HepG2 on Incucyte Max % killing [9]: 103%
Huh7 on xCELLigence IC50 [9]: 0.198 nM
Huh7 on xCELLigence Max % killing [9]: 107%
IC50 (M), xCELLigence human TDC assay, Hep-G2 [10]: 7.3e-11 M
IC50 (M), xCELLigence human TDC assay, Huh-7 [10]: 2.4e-11 M
IC50 (M), xCELLigence human TDC assay, NCI-H661 [10]: 1.4e-10 M

B8: A022600102 (other)
chain: DVQLVESGGGVVQPGGSLRLSCVASGYVHKINFYGWYRQAPGKEREKVAHISIGDQTDYADSAKGRFTISRDESKNTVYLQMNSLRPEDTALYYCRALSRIWPYDYWGQGTLVTVSSAAAEVQLVESGGGLVQPGGSLRLSCVASGFTFSSFAMTWVRRPPGKGLEWVATITNGGVTSYRDSVKGRFTISRDNAKNTLYLEMTSLNPEDTAVYICANARRTGPRAPTDIGSYRGQGTLVTVSSGGGGSGGGGSGGGGSGGGGSGGGGSGGGGSGGGGSEVQLVESGGGVVQPGGSLRLSCAASGFTFRSFGMSWVRQAPGKGPEWVSSISGSGSDTLYADSVKGRFTISRDNSKNTLYLQMNSLRPEDTALYYCTIGGSLSRSSQGTLVTVSSA
IC50 (M), Incucyte human TDC HepG2-Nuclight green assay [6]: 1.72e-09 M
Max % Killing, Incucyte human TDC HepG2-Nuclight green assay [6]: 94%
